Results reported in US20110256153A1 (IMMUNOGEN, published 2011).

T1: hCD37-M3 (human/murine chimera, UniProt P11049 1-281)
T1 construct: stably expressed on 300-19 cells; also called hCD37-M3 variant
T1 chain: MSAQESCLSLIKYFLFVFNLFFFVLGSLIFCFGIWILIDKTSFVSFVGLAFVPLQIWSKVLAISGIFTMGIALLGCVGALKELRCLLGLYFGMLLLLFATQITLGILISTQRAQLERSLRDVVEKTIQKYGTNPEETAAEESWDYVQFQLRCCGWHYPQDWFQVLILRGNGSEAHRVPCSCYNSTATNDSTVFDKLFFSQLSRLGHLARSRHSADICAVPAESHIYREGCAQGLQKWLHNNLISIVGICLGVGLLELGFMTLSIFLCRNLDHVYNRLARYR

T2: hCD37-M1 (human/murine chimera, UniProt P11049 1-281)
T2 construct: stably expressed on 300-19 cells; also called hCD37-M1 variant
T2 chain: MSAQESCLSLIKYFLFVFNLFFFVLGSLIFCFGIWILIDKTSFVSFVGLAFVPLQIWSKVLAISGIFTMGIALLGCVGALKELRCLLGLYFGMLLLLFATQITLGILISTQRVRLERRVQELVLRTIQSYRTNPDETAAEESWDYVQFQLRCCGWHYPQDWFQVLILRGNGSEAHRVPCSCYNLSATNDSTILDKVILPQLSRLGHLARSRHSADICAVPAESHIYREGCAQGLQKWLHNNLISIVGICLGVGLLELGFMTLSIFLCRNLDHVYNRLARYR

T3: human CD37 (human, UniProt P11049 1-278)
T3 construct: Tetraspanin antigen; Expressed on 300-19 cells transfected with pSRa-CD37 (entire CDS) or endogenous on WSU-DLCL-2, BJAB and Ramos lymphoma cells; also called CD37 antigen; human CD37 wildtype
T3 sequence: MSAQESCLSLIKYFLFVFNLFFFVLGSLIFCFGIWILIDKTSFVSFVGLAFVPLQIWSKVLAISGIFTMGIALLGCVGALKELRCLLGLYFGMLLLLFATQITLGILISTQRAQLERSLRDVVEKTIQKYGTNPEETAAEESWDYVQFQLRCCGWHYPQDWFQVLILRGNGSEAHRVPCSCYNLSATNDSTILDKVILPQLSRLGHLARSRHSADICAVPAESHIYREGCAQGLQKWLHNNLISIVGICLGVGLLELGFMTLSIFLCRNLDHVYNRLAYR

T4: hCD37-M45 (human/murine chimera, UniProt P11049 1-281)
T4 construct: stably expressed on 300-19 cells; also called hCD37-M45 variant
T4 chain: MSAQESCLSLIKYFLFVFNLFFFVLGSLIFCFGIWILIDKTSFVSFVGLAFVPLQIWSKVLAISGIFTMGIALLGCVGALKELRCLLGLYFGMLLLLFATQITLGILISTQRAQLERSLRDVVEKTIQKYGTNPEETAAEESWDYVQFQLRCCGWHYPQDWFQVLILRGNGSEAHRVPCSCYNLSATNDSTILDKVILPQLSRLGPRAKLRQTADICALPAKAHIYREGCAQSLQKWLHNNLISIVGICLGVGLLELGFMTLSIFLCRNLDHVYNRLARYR

T5: macaque CD37 (macaque, UniProt P11049 1-277 (human entry))
T5 construct: Expressed on 300-19 cells transfected with pSRa-CD37mac (300-19/CD37mac cells); also called macaca CD37; macaque derived CD37 antigen
T5 chain: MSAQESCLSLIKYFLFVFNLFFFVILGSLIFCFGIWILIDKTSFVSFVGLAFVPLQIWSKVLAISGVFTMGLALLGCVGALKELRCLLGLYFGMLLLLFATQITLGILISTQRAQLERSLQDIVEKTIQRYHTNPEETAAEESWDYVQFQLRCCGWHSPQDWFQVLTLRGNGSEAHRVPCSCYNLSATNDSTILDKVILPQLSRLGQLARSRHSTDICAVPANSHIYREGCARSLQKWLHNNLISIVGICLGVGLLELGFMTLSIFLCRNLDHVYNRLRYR


Experiments:
[1] = molecular target: T1, hCD37-M3; assay: flow cytometry, 300-19 cells expressing hCD37-M3, 1.5 µg/mL antibody
Procedure: (§1) Binding specificity was tested by flow cytometry using purified antibodies. […] All murine antibodies were incubated for 3 h with either CD37-expressing 300-19 cells or the non-transfected 300-19 cells (1×10⁵ cells per sample) in 100 μL FACS buffer (RPMI-1640 medium supplemented with 2% normal goat serum). Then, the cells were pelleted, washed, and incubated for 1 h with 100 μL of FITC-conjugated goat anti-mouse IgG-antibody (Jackson Laboratory, 6 μg/mL in FACS buffer). The cells were pelleted again, washed with FACS buffer and resuspended in 200 μL of PBS containing 1% formaldehyde. Samples were acquired using a FACSCalibur flow cytometer with the HTS multiwell sampler or a FACS array flow cytometer and analyzed using CellQuest Pro (all from BD Biosciences, San Diego, US).
(§2) Binding of various CD37 antibodies to cells expressing human CD37 wildtype and variants was analyzed by flow cytometry using 1.5 μg/mL of each antibody. The isolated antibodies of this invention were compared to commercially available CD37 antibody WR17, as well as the TRU-016 SMIP. […] Likewise, all antibodies tested bound the hCD37-M3 variant (FIG. 18B). In contrast, the isolated antibodies of this invention bound the hCD37-M1 variant, while TRU-016 and WR17 were unable to bind hCD37-M1 variant (FIG. 19A). The CD37-50 and CD37-51 antibodies and TRU-016 were also able to bind the hCD37-M45 variant. […] In contrast, the CD37-3, CD37-12, CD37-38, CD37-56 and CD37-57 antibodies require at least one of the AA residues in the hCD37-M45 variant that were changed to the corresponding murine AA residues for binding to the CD37 antigen.

[2] = molecular target: T2, hCD37-M1; assay: flow cytometry, 300-19 cells expressing hCD37-M1, 1.5 µg/mL antibody
Procedure: as §1, §2

[3] = molecular target: T3, human CD37; assay: flow cytometry titration on BJAB cells; apparent Kd
Method in brief: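 BJAB cells were incubated 3 h with titrated antibody in RPMI-1640 containing 2% goat serum, then 1 h with FITC anti-mouse or anti-human IgG, fixed in 1% formaldehyde and read by flow cytometry. Apparent Kd was derived by non-linear regression of the dose-response curves.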

[4] = molecular target: T4, hCD37-M45; assay: flow cytometry, 300-19 cells expressing hCD37-M45, 1.5 µg/mL antibody
Procedure: as §1
Binding of various CD37 antibodies to cells expressing human CD37 wildtype and variants was analyzed by flow cytometry using 1.5 μg/mL of each antibody. The isolated antibodies of this invention were compared to commercially available CD37 antibody WR17, as well as the TRU-016 SMIP. […] Likewise, all antibodies tested bound the hCD37-M3 variant (FIG. 18B). In contrast, the isolated antibodies of this invention bound the hCD37-M1 variant, while TRU-016 and WR17 were unable to bind hCD37-M1 variant (FIG. 19A). The CD37-50 and CD37-51 antibodies and TRU-016 were also able to bind the hCD37-M45 variant. […]

[5] = molecular target: T5, macaque CD37; assay: flow cytometry, 300-19/CD37mac cells
Procedure: as §1
The murine antibodies muCD37-3, muCD37-12, muCD37-38, […], muCD37-51, muCD37-56 and muCD37-57 were assayed for their ability to bind to 300-19/CD37mac cells expressing macaque CD37. Flow cytometry binding assays were carried out using secondary FITC-conjugated goat-anti-murine or goat-anti-human antibodies, analyzed as described in Example 2. Binding was compared to the previously described anti-CD37 antibody WR17 and the anti-CD37 SMIP TRU-016. […] In contrast, muCD37-3, muCD37-12, the previously described anti-CD37 antibody WR17 and the anti-CD37 SMIP TRU-016 are unable to bind the macaque derived CD37 antigen.

Row | binding result [1] | binding result [2] | Kd [3] [nM] | binding result [4] | binding result [5] | Binder
1 | binds | binds | 0.6 | binds |  | muCD37-50 (antibody, mouse IgG2a, kappa, V domains shown, Murine hybridoma antibody) VH: DVQLQESGPDLLKPSQSLSLTCTVTGYSITSGFAWHWIRQFPGNKLEWMGYILYSGSTVYSPSLKSRISITRDTSKNHFFLQLNSVTTEDTATYYCARGYYGYGAWFAYWGQGTLVTVSA VL: QIVLTQSPAIMSASPGEKVTMTCSATSSVTYMHWYQQKSGTSPKRWIYDTSKLPYGVPGRFSGSGSGTSYSLTISSMEAEDAATYYCQQWSDNPPTFGSGTKLEIKR
2 | binds | binds | 0.6 | binds | binds | muCD37-51 (antibody, mouse IgG2a, kappa, V domains shown, Murine hybridoma antibody) VH: DVQLQESGPDLLKPSQSLSLTCTVTGYSISSGFAWHWIRQFPGNKLEWMGYIHYSGSTNYSPSLKSRISITRDSSKNQFFLQLNSVTTEDTATYYCARGYYGFGAWFVYWGQGTLVTVSA VL: QIVLTQSPAIMSASPGEKVTMTCSATSSVTYMHWYQQKSGTSPKRWIYDTSKLASGVPARFSGSGSGTSYSLTISNMEAEDAATYYCQQWSSNPPTFGSGTKLEIKR
